Experimental data taken from US20170173105A1, “AUTOASSEMBLING PEPTIDES FOR THE TREATMENT OF PULMONARY LEAKAGE” (3-D MATRIX, LTD., priority 2014, published 2017).

Columns and labels:
Type in all cases: physicochemical
[1] = Appearance of 1.5% peptide solutions with various salts at room temperature; details: for Appearance: IEIK13 solution, room temperature
Procedure: The effect of salt ionic strength level on the properties of peptide solutions was evaluated to identify optimized salt ionic strength levels for the peptides as described herein. Increasing the salt ionic strength level of PuraMatrix® and other peptides may generally improve its function and mechanical strength for various clinical applications. To adjust the salt ionic strength of the peptide solutions by way of example, various salt buffer solutions including NaCl, KCl, MgCl2, CaCl2 and DPBS (10×) were added to 2 mL of 1.5% peptide solutions.

[2] = pH and appearance of 2.5% peptide solutions after adding 0.1 N NaOH
Procedure: To adjust the pH level of the peptide solutions by way of example, 0.1 N NaOH was added to 2 mL of 2.5% peptide solutions and their pH and appearance were measured.

[3] = Rheological properties of pH adjusted peptide solutions and hydrogels (stress/frequency sweep)
Procedure: Based on the visual observation of the effect of pH level on the properties of the peptide solutions, the effect on the rheological properties of the peptide solutions after adjusting their pH level to 3.4 (PuraMatrix® and KLD12) or 3.7 (IEIK13) was evaluated. If the pH levels of peptide solutions are higher than 3.5 (PuraMatrix® and KLD12) or 3.7 (IEIK13), the peptide solution began phase separation becoming cloudy. The rheological properties of PuraMatrix®, KLD12 and IEIK13 solutions were higher at pH 3.4. The results are shown in FIG. 2 for KLD12 1%, FIG. 3 for IEIK13 1%, and FIGS. 4-5 for PuraMatrix® 1% and 2.5%, respectively. Stress sweep tests were performed at 10 rad/s. Frequency sweep tests were performed at 1 Pa.
Based on the results of the effect on the rheological properties of the peptide solutions after adjusting their pH level to 3.4 (PuraMatrix® and KLD12) or 3.7 (IEIK13), the effect on the rheological properties of the peptide solutions at various pH levels was evaluated. […] The rheological properties of peptides were evaluated at various concentrations using a rheometer (DHR-1, TA Instruments) with 20 mm plates. The results are shown in FIG. 6A for PuraMatrix® 2.5% solution and FIG. 6B for IEIK13 1.5% solution, respectively. Frequency sweep tests were performed from 1 rad/sec to 10 rad/sec at 1 Pa and the storage modulus at 1 rad/sec was selected for data.
Based on the results of the effect on the rheological properties of the peptide solutions after adjusting their pH level, the effect on the rheological properties of the peptide hydrogels at various pH after DMEM treatment was evaluated and compared to the effect on the rheological properties of the peptide solutions at various pH before DMEM treatment. […] The results are shown in FIGS. 7A-7B for PuraMatrix® and FIGS. 8A-8B for IEIK (SEQ ID NO: 5), respectively. Frequency sweep tests were performed from 1 rad/sec to 10 rad/sec at 1 Pa and the storage modulus at 1 rad/sec was selected for data.

[4] = 0.1 N NaOH 0 μL/mL added in 2.5% solution, conc. 2.5%
[5] = 0.1 N NaOH 50 μL/mL added in 2.5% solution, conc. 2.38%
[6] = 0.1 N NaOH 100 μL/mL added in 2.5% solution, conc. 2.27%
[7] = 0.1 N NaOH 350 μL/mL added in 2.5% solution, conc. 1.85%
[8] = pH increase up to approximately 3.5 or less with 0.1 N NaOH, 2.5% solutions

Ile-Glu-Ile-Lys-Ile-Glu-Ile-Lys-Ile-Glu-Ile-Lys-Ile [IEIK13]
Appearance ([1]; CaCl2 0 M, ionic strength 0 M, conc. 1.5%): Clear, thick gel
Appearance ([1]; CaCl2 0.005 M, ionic strength 0.015 M, conc. 1.46%): Clear, thick, stiffer gel
Appearance ([1]; CaCl2 0.0067 M, ionic strength 0.02 M, conc. 1.45%): Clear, thick, stiffer gel
Appearance ([1]; CaCl2 0.0083 M, ionic strength 0.025 M, conc. 1.44%): Clear, thick, stiffer gel
Appearance ([1]; CaCl2 0.01 M, ionic strength 0.03 M, conc. 1.43%): Clear, thick, stiffer gel
Appearance ([1]; CaCl2 0.0117 M, ionic strength 0.035 M, conc. 1.41%): Clear, thick, stiffer gel
Appearance ([1]; CaCl2 0.0133 M, ionic strength 0.04 M, conc. 1.40%): Slightly cloudy, thick, stiffer gel
Appearance ([1]; CaCl2 0.015 M, ionic strength 0.045 M, conc. 1.39%): Slightly cloudy, thick, stiffer gel
Appearance ([1]; CaCl2 0.0167 M, ionic strength 0.05 M, conc. 1.37%): Slightly cloudy, brittle gel
Appearance ([1]; CaCl2 0.0183 M, ionic strength 0.055 M, conc. 1.36%): Cloudy, phase-separated
Appearance ([1]; KCl 0 M, ionic strength 0 M, conc. 1.5%): Clear, thick gel
Appearance ([1]; KCl 0.005 M, ionic strength 0.005 M, conc. 1.46%): Clear, thick, stiffer gel
Appearance ([1]; KCl 0.01 M, ionic strength 0.01 M, conc. 1.43%): Clear, thick, stiffer gel
Appearance ([1]; KCl 0.015 M, ionic strength 0.015 M, conc. 1.39%): Clear, thick, stiffer gel
Appearance ([1]; KCl 0.02 M, ionic strength 0.02 M, conc. 1.35%): Clear, thick, stiffer gel
Appearance ([1]; KCl 0.025 M, ionic strength 0.025 M, conc. 1.31%): Clear, thick, stiffer gel
Appearance ([1]; KCl 0.03 M, ionic strength 0.03 M, conc. 1.27%): Clear, thick, stiffer gel
Appearance ([1]; KCl 0.035 M, ionic strength 0.035 M, conc. 1.24%): Slightly cloudy, brittle gel
Appearance ([1]; KCl 0.04 M, ionic strength 0.04 M, conc. 1.2%): Slightly cloudy, brittle
Appearance ([1]; KCl 0.045 M, ionic strength 0.045 M, conc. 1.16%): Cloudy, phase-separated
Appearance ([1]; MgCl2 0 M, ionic strength 0 M, conc. 1.5%): Clear, thick gel
Appearance ([1]; MgCl2 0.005 M, ionic strength 0.015 M, conc. 1.46%): Clear, thick, stiffer gel
Appearance ([1]; MgCl2 0.0067 M, ionic strength 0.02 M, conc. 1.45%): Clear, thick, stiffer gel
Appearance ([1]; MgCl2 0.0083 M, ionic strength 0.025 M, conc. 1.44%): Clear, thick, stiffer gel
Appearance ([1]; MgCl2 0.01 M, ionic strength 0.03 M, conc. 1.43%): Clear, thick, stiffer gel
Appearance ([1]; MgCl2 0.0117 M, ionic strength 0.035 M, conc. 1.41%): Clear, thick, stiffer gel
Appearance ([1]; MgCl2 0.0133 M, ionic strength 0.04 M, conc. 1.40%): Slightly cloudy, thick, stiffer gel
Appearance ([1]; MgCl2 0.015 M, ionic strength 0.045 M, conc. 1.39%): Slightly cloudy, stiffer gel
Appearance ([1]; MgCl2 0.0167 M, ionic strength 0.05 M, conc. 1.37%): Slightly cloudy, brittle gel
Appearance ([1]; MgCl2 0.0183 M, ionic strength 0.055 M, conc. 1.36%): Cloudy, phase-separated
Appearance ([1]; NaCl 0 M, ionic strength 0 M, conc. 1.5%): Clear, thick gel
Appearance ([1]; NaCl 0.005 M, ionic strength 0.005 M, conc. 1.46%): Clear, thick, stiffer gel
Appearance ([1]; NaCl 0.01 M, ionic strength 0.01 M, conc. 1.43%): Clear, thick, stiffer gel
Appearance ([1]; NaCl 0.015 M, ionic strength 0.015 M, conc. 1.39%): Clear, thick, stiffer gel
Appearance ([1]; NaCl 0.02 M, ionic strength 0.02 M, conc. 1.35%): Clear, thick, stiffer gel
Appearance ([1]; NaCl 0.025 M, ionic strength 0.025 M, conc. 1.31%): Clear, thick, stiffer gel
Appearance ([1]; NaCl 0.03 M, ionic strength 0.03 M, conc. 1.27%): Slightly cloudy, thick, stiffer gel
Appearance ([1]; NaCl 0.035 M, ionic strength 0.035 M, conc. 1.24%): Slightly cloudy, brittle gel
Appearance ([1]; NaCl 0.04 M, ionic strength 0.04 M, conc. 1.2%): Cloudy, phase-separated
apparent stiffness on salt ionic strength increase ([1]; up to the ionic strength at which solutions stay clear): increased
Appearance [2, 4]: Clear, thick gel
Peptide solution pH [2, 4]: 1.8
Appearance [2, 5]: Clear, thick gel
Peptide solution pH [2, 5]: 2.1
Appearance [2, 6]: Clear, thick gel
Peptide solution pH [2, 6]: 2.2
Peptide solution pH ([2]; 0.1 N NaOH 150 μL/mL added in 2.5% solution, conc. 2.17%): 2.7
Peptide solution pH ([2]; 0.1 N NaOH 200 μL/mL added in 2.5% solution, conc. 2.08%): 3.0
Peptide solution pH ([2]; 0.1 N NaOH 250 μL/mL added in 2.5% solution, conc. 2.0%): 3.3
Peptide solution pH ([2]; 0.1 N NaOH 275 μL/mL added in 2.5% solution, conc. 1.96%): 3.7
Peptide solution pH ([2]; 0.1 N NaOH 300 μL/mL added in 2.5% solution, conc. 1.92%): 4.0
Appearance [2, 7]: Cloudy, brittle gel
Peptide solution pH [2, 7]: 4.5
Peptide solution pH ([2]; 0.1 N NaOH 400 μL/mL added in 2.5% solution, conc. 1.79%): 5.4
Peptide solution pH ([2]; last line per peptide, NaOH volume and conc. not given): 7.0
apparent stiffness on pH increase [2, 8]: increased
color of solution on pH increase [2, 8]: did not change the clear color
pH level at which the peptide solution began phase separation becoming cloudy [3]: > 3.7
rheological property of solutions at various pH levels ([3]; PuraMatrix 2.5% solution, IEIK13 1.5% solution, storage modulus at 1 rad/sec): increases with pH adjustment up to 3.4
rheological property of hydrogels after DMEM treatment at various pH ([3]; after DMEM treatment, storage modulus at 1 rad/sec): increases with pH adjustment up to 3.4
rheological properties of solutions after pH adjustment ([3]; at pH 3.4 (IEIK13 adjusted to 3.7), KLD12 1%, IEIK13 1%, PuraMatrix 1% and 2.5%): higher
